Test [1] concerns the target T1, endogenous CD19 on Raji / Nalm6 cells (also on CD22 knock-out Raji cells) (human, UniProt P15391 20-556).
T1 construct: whole, on cells
T1 sequence (looked up): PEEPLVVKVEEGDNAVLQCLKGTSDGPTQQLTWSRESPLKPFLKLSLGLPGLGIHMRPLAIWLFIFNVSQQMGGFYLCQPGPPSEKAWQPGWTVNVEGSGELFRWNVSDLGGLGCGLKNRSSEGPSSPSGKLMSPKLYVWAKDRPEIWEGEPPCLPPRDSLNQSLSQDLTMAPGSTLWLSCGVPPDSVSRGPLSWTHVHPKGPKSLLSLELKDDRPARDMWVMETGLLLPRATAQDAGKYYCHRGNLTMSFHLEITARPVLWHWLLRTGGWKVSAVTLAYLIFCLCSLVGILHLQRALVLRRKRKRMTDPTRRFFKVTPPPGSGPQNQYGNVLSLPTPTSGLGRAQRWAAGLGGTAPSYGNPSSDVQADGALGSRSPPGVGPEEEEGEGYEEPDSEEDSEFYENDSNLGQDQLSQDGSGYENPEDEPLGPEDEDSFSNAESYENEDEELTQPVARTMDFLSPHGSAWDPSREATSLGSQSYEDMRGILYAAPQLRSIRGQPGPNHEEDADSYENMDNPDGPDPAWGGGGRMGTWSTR
Briefly: FACS, scFv-Fc fusion on CD22 knock-out Raji cells (which keep CD19). On the technique in general: In flow cytometry, cells or beads pass a laser one at a time.

The target of test [2] is T2, HIS tagged human CD22 recombinant protein (human, UniProt P20273 20-687, limits assumed).
T2 construct: also called rhCD22; human CD22-HIS tagged protein; not shown: His tag
Briefly: ELISA, His-tagged CD22 coated at 2 µg/mL, anti-hFc HRP detection. How it is done: (§1) Briefly, 384 well plate was immobilized with HIS tagged human CD19 or CD22 recombinant protein at final concentration of 2 μg/mL in 1×PBS in total volume of 25μL per well. The plate was incubated overnight at 4° C. followed by blocking with 80μL of superblock per well for 1 hour. […] CD19 or CD22 binding was detected by adding 25 μL of anti-hFc HRP diluted at 1:5000 in 1×PBST. In between each step, the plate was washed 3 times with 1×PBST in a plate washer. The plate was then developed with 20 μL of TMB substrate for 5 mins and stopped by adding 20 μL of 2 N sulfuric acid. The plate was read at OD450 nm (BIOTEK plate reader) and data plotted using GraphPad Prism® 8.1 software. […]
For orientation: In an ELISA, binding on a coated surface is turned into a signal by an enzyme label.

Test [3] deals with T2, HIS tagged human CD22 recombinant …. Kind of test: SPR Biacore T200, Fc fusion captured on Protein A chip, His-tagged CD22 as analyte. How it is done: (§2) The assay was run using Biacore™ T200 control software version 2.0. For each cycle, 1 μg/mL of Fc-fusion protein was captured for 60 seconds at flow rate of 10 ul/min on flow cell 2 in 1×HBSP buffer on Protein A sensor chip. 2-fold serial human CD19 or CD22-HIS tagged protein was injected onto both reference flow cell 1 and Fc fusion protein captured flow cell 2 for 150 seconds at flow rate of 30 μl/mins followed by wash for 300 seconds. The flow cells were then regenerated with Glycine pH2 for 60 seconds at flow rate of 30 ul/mins. 8 concentration points from 100-0 nM was assayed per Fc fusion in a 96 well plate. The kinetics of Anti-CD19, CD22, CD22-CD19 binding to CD19 or CD22 protein was analyzed using Biacore™ T200 evaluation software version 3.0. The specific binding response unit was derived from subtraction of binding to reference flow cell-1 from Fc fusion protein captured flow cell-2.
In general terms: Surface plasmon resonance follows binding to a sensor surface in real time, without labels.

Test [4] concerns the target T3, HIS tagged human CD19 recombinant protein (human, UniProt P15391 20-291, limits assumed).
T3 construct: also called rhCD19; human CD19-HIS tagged protein; not shown: His tag
T3 sequence (looked up): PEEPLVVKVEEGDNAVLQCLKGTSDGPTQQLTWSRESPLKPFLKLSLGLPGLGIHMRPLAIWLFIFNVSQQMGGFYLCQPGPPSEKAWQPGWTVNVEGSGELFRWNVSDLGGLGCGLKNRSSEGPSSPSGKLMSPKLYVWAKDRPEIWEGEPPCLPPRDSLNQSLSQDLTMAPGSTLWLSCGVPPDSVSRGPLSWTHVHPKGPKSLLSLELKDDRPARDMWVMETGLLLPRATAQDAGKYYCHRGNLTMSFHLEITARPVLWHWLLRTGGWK
Kind of test: ELISA, plate coated with His-tagged human CD19 at 2 ug/mL, anti-hFc HRP detection. On the procedure: as §1

Test [5] addresses T3, HIS tagged human CD19 recombinant …. Kind of test: ELISA, His-tagged CD19 coated at 2 µg/mL, anti-hFc HRP detection. On the procedure:
as §1

The target is the same in test [6]. Briefly: SPR Biacore T200, Fc fusion captured on Protein A chip, His-tagged CD19 as analyte. How it is done:
as §2

In test [7] the target is T4, full-length human CD19 on transfected K562 cells (human, UniProt P15391 20-556).
T4 construct: whole, on cells; K562 clone transfected with pCMV6-Entry; also called CD19 K562; CD19/K562; not shown: flag or Myc tag at the C-terminus
T4 sequence (looked up): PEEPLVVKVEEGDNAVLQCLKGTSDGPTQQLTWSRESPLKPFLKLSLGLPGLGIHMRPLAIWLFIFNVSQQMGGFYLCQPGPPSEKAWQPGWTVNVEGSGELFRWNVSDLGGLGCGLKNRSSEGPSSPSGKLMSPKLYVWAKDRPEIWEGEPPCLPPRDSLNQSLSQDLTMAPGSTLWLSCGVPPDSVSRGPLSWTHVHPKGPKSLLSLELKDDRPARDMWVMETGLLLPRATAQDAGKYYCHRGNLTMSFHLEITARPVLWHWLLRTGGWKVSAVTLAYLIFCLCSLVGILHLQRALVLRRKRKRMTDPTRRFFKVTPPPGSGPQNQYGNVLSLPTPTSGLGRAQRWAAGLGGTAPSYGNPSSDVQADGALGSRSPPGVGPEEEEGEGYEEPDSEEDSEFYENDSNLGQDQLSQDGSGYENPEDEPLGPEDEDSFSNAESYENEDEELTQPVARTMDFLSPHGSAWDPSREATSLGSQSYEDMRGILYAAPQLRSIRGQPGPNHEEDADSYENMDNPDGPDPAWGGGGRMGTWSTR
Briefly: FACS, scFv at 200 nM on CD19 K562 cells, Alexa Fluor 647 anti-His detection, % positive cells. On the procedure: Cells were spun down at 1300 rpm for 5 minutes at 4° C. to remove unbound antibodies. Cells were then washed once with 200 iaL of PBS per well. […] Samples were then spun down at 1300 rpm for 5 minutes at 4° C. and washed twice with 200uL of 1×PBS per well. The resultant samples were reconstituted in 200 uL of 1×PBS and read on Attune™ NxT Flow Cytometer.

For test [8], the target named is T5, endogenous CD22 on Raji / Nalm6 cells (also on CD19 knock-out Raji cells) (human, UniProt P20273 20-847).
T5 construct: whole, on cells
Briefly: FACS, scFv at 200 nM on Raji and Nalm6 cells, Alexa Fluor 647 anti-His detection, % positive cells.

In test [9] the target is HIS tagged human CD19 recombinant protein (human) (UniProt P15391). Kind of test: ELISA, His-tagged CD19 coated at 2 µg/mL, anti-hFc HRP detection.
In test [10] the target is HIS tagged human CD22 recombinant protein (human) (UniProt P20273). Briefly: ELISA, His-tagged CD22 coated at 2 µg/mL, anti-hFc HRP detection.
For test [11], the target named is HIS tagged human CD19 recombinant protein (human) (UniProt P15391). Kind of test: SPR Biacore T200, Fc fusion captured on Protein A chip, His-tagged CD19 as analyte.
The target of test [12] is HIS tagged human CD22 recombinant protein (human) (UniProt P20273). Kind of test: SPR Biacore T200, Fc fusion captured on Protein A chip, His-tagged CD22 as analyte.

B1: anti-CD22 scFv-Fc (Fc fusion, not shown: a dimerising Fc or GST)
chain: EVQLVQSGAEVKKPGASVKVSCKASGYTFTSYGISWVRQAPGQGLEWMGWISAYNGNTNYAQKLQGRVTMTTDTSTSTAYMELRSLRSDDTAVYYCARDYGDPSGDDYWGQGTLVTVSSGGGGSGGGGSGGGGSEIVLTQSPATLSVSPGEGVTLSCRASQSVSSNLAWYQQRPGQAPRLLIYGASIKATDVPDRFSGGGSGTDFTLSISNLQSEDFAVYYCQQYHTWPPVTFGGGTKVEIK
notes: also called Anti-CD22-Fc
In the case of B1, in test [1], the binding result is recorded as “no binding”. The EC50 in test [2] turned out to be 0.043 nM. Besides, in test [3], the Kd stood at 1.44 nM, the koff turned out to be 0.000177 s⁻¹ and the kon amounted to 122000 M⁻¹ s⁻¹. The binding result in test [4] is on record as “no binding (tested: 25 nM)”.

B2: anti-CD19 scFv-Fc (Fc fusion, not shown: a dimerising Fc or GST)
chain: QVQLQQWGAGLLKPSETLSLTCAVYGGSFSGYYWTWIRQPPGKGLEWIGEINHGGSSNYNPSLKSRVTISVDTSKKQFSLNLNSVTAADTAVYYCARGLGYRSGWYEVENAFDIWGQGTMVTVSSGGGGSGGGGSGGGGSQPVLTQPPSVSVAPGQTARITCGGNKIESRSVHWYQQKPGQAPVLVVYDDGARPSGIPERLSGSNSGDTATLTISRVEPGDEADYYCQVWDGSSVIFGGGTKLTVL
notes: also called anti-CD19-Fc
Take B2: the EC50 in test [5] was determined as 0.0094 nM. For the same molecule, in [6], the Kd was found to be 3.75 nM, the koff was found to be 0.000223 s⁻¹ and the kon was found to be 59400 M⁻¹ s⁻¹.

B3: EPC-001-2 (scFv)
scFv (VH-linker-VL): QVQLVQSGAEVKRPGASVKVSCKASGYTFTSYGISWVRQAPGQGLEWMGWISAYNGNTNYAQKLQGRVTMTTDTSTSTAYMELRSLRSDDTAVYYCARDPGIAVAGTVDYWGQGTLVTVSSGGGGSGGGGSGGGGSEIVMTQSPATLSVSPGEGVTLSCRASQSVSSNLAWYQQRPGQAPRLLIYGASIKATDVPDRFSGGGSGTDFTLSISNVQSEDFAVYYCQQYHTWTPVTFGGGTKVEIK
notes: also called anti-CD22 monospecific scFv; parental anti-CD22 scFv
For B3, the binding result in test [7] is on record as “no binding (tested: 200 nM)”; in test [8] it was “binds”.

B4: Anti-CD22scFv-CD19scFv-Fc (bispecific antibody, part only; not given: Fc and inter-scFv linker, not shown: a dimerising Fc or GST)
chain, part: EVQLVQSGAEVKKPGASVKVSCKASGYTFTSYGISWVRQAPGQGLEWMGWISAYNGNTNYAQKLQGRVTMTTDTSTSTAYMELRSLRSDDTAVYYCARDYGDPSGDDYWGQGTLVTVSSGGGGSGGGGSGGGGSEIVLTQSPATLSVSPGEGVTLSCRASQSVSSNLAWYQQRPGQAPRLLIYGASIKATDVPDRFSGGGSGTDFTLSISNLQSEDFAVYYCQQYHTWPPVTFGGGTKVEIKQVQLQQWGAGLLKPSETLSLTCAVYGGSFSGYYWTWIRQPPGKGLEWIGEINHGGSSNYNPSLKSRVTISVDTSKKQFSLNLNSVTAADTAVYYCARGLGYRSGWYEVENAFDIWGQGTMVTVSSGGGGSGGGGSGGGGSQPVLTQPPSVSVAPGQTARITCGGNKIESRSVHWYQQKPGQAPVLVVYDDGARPSGIPERLSGSNSGDTATLTISRVEPGDEADYYCQVWDGSSVIFGGGTKLTVL
On to B4, for which the EC50 in test [9] turned out to be 0.052 nM. Also, in test [10], the EC50 worked out at 0.189 nM. In [11], the Kd worked out at 4.37 nM, the koff is 0.00025 s⁻¹ and the kon was determined as 57200 M⁻¹ s⁻¹. Moreover, in test [12], the dissociation constant Kd is 3.37 nM, the koff amounted to 0.000266 s⁻¹ and the association rate constant (kon) came out at 79000 M⁻¹ s⁻¹.

A word on the EC50: it is the concentration giving half of the maximal effect. The term Kd denotes the concentration at which binding is half-saturated. As a reminder, the koff is the rate constant with which the complex falls apart. For orientation: kon means the rate constant with which the complex forms.

The values are drawn from patent US20240082402A1 (ELPIS BIOPHARMACEUTICALS, published 2024).
